Assay results reported in patent US20050249719.

T1: 33-mer gliadin peptide LQLQPFPQPQLPYPQPQLPYPQPQLPYPQPQPF
T1 chain: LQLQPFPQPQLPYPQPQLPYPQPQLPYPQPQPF

T2: gliadin peptide PQPQLPYPQPQLP
T2 chain: PQPQLPYPQPQLP

B1: human tissue transglutaminase (protein)
chain: AEELVLERCDLELETNGRDHHTADLCREKLVVRRGQPFWLTLHFEGRNYEASVDSLTFSVVTGPAPSQEAGTKARFPLRDAVEEGDWTATVVDQQDCTLSLQLTTPANAPIGLYRLSLEASTGYQGSSFVLGHFILLFNAWCPADAVYLDSEEERQEYVLTQQGFIYQGSAKFIKNIPWNFGQFEDGILDICLILLDVNPKFLKNAGRDCSRRSSPVYVGRVVSGMVNCNDDQGVLLGRWDNNYGDGVSPMSWIGSVDILRRWKNHGCQRVKYGQCWVFAAVACTVLRCLGIPTRVVTNYNSAHDQNSNLLIEYFRNEFGEIQGDKSEMIWNFHCWVESWMTRPDLQPGYEGWQALDPTPQEKSEGTYCCGPVPVRAIKEGDLSTKYDAPFVFAEVNADVVDWIQQDDGSVHKSINRSLIVGLKISTKSVGRDEREDITHTYKYPEGSSEEREAFTRANHLNKLAEKEETGMAMRIRVGQSMNMGSDFDVFAHITNNTAEEYVCRLLLCARTVSYNGILGPECGTKYLLNLNLEPFSEKSVPLCILYEKYRDCLTESNLIKVRALLVEPVINSYLLAERDLYLENPEIKIRILGEPKQKRKLVAEVSLQNPLPVALEGCTFTVEGAGLTEEQKTVEIPDPVEAGEEVKVRMDLLPLHMGLHKLVVNFESDKLKAVKGFRNVIIGPA
B2: Flavobacterium meningosepticum prolyl endopeptidase (recombinant, expressed in E. coli) (protein)
chain: QNSNVLKYPETKKVSHTDTYFGTQVSDPYRWLEDDRAEDTKAWVQQEVKFTQDYLAQIPFRDQLKKQLMDIWNYEKISAPFKKGKYTYFSKNDGLQAQSVLYRKDAAGKTEVFLDPNKFSEKGTTSLASVSFNKKGTLVAYSISEGGSDWNKIIILDAETKKQLDETLLDVKFSGISWLGDEGFFYSSYDKPKEGSVLSGMTDKHKVYFHKLGTKQSQDELIIGGDKFPRRYIGAYVTDDQRYLVVSAANATNGNELYIKDLKNKTDFIPIITGFDSNVNVADTDGDTLYLFTDKDAPNKRLVKTTIQNPKAETWKDVIAETSEPLEINTGGGYFFATYMKDAIDQVKQYDKNGKLVRAIKLPGSGNASGFGGEKTEKDLYYSFTNYITPPTIFKYNVTTGNSEVYQKPKVKFNPENYVSEQVFYTSSDGTKIPMMISYKKGLKKDGKNPTILYSYGGFNISLQPAFSVVNAIWMENGGIYAVPNIRGGGEYGKKWHDAGTKMQKKNVFNDFIAAGEYLQKNGYTSKEYMALSGRSNGGLLVGATMTMRPDLAKVAFPGVGVLDMLRYNKFTAGAGWAYDYGTAEDSKEMFEYLKSYSPVHNVKAGTCYPSTMVITSDHDDRVVPAHSFKFGSELQAKQSCKNPILIRIETNAGHGAGRSTEQVVAENADLLSFALYEMGIKSLK

How the values were obtained:
[1] = target: T1, 33-mer gliadin peptide …
[2] = target: T2, gliadin peptide PQPQLPYPQPQLP

| Protein | kcat/KM of deamidation [1] | competitive proteolysis of the 13-mer and the 33-mer [1] | initial rate on the 33-mer, fold against MX PEP [1] | initial rate on the 33-mer, fold against SC PEP [1] | rate of substrate (33-mer+32-mer) disappearance [1] | time to hydrolyze 10 µM of the 33-mer with 0.1 µM enzyme [1] | Kcat/KM [2] [mM^-1/s^-1] | competitive proteolysis of the 13-mer and the 33-mer [2] |
| --- | --- | --- | --- | --- | --- | --- | --- | --- |
| B1 | kcat/KM=440 min-1 mM-1 | – | – | – | – | – | – | – |
| B2 | – | showed comparable selectivity for both peptides | 5-fold faster on the 33-mer than the MX PEP | >20 fold faster than the SC PEP | 2.3 µM/min (FM PEP) | in about 2-3 minutes | 178 | showed comparable selectivity for both peptides |
